Measured values: the nanobody polyreactivity screen of Harvey et al. (2022)

Assay: yeast display, Sf9 membrane polyspecificity reagent, FACS + sequencing; frameworks hold sequencing errors
Procedure, shortened: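 Galactose induction of a Saccharomyces cerevisiae BJ5465 synthetic nanobody display library ran 36–48 hours. The cells were then stained for 1 hour at 4 °C with 10% biotinylated, detergent-solubilized Sf9 membrane reagent, pulled down on streptavidin microbeads and FACS-sorted into low and high (top ~1%) gates on expression and reagent-binding fluorescence. Labels for polyreactivity follow the gate of origin.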

Sequence | polyreactivity (PSR sort gate)
QVQLVESGGGLVQAGGSLRLSCAASGSIFFLYARGWYRQAPGKERELVAAISRSGGNTYYADSVKGRFTISRDNAKNSVYLQMNSLKPEDTAVYYCAADGVHRGGRGGYWGQGTQVTVSS | high polyreactivity
QVQLVESGGGLVQAGGSLRLSCAASGIIFYGNAMGWYRQAPGKERELVARITGSDGRTYYADSVKGRFTISRDNAKNTVYLQMNSLKPEDTAVYYCNADRVRTAVYSYVYAYGIMNYWGQGTQVTVSS | low polyreactivity
QVQLVESGGGLVQAGGSLRLSCAASGIIFPYYSMGWYRQAPGKERELVAAITSSGGSTYYADSVKGRFTISRDNAKNTVYLQMNSLKPEDTAVYYCAAQTWGHGGDSWGQGTQVTVSS | high polyreactivity
QVQLVESGGGLVQAGGSLRLSCAASGSIFPANAMGWYRQAPGKEWEFVAAINWSTGTTYYADSVKGRFTIARDNAKNTVYLQMNRLKPEETPVYYCNASDQAKYDYWGQGTQVTVSS | low polyreactivity
QVQLVESGGGLVQAGVSLRISCAAAGFTFERYAMGWYRQAPGKERELVATISRRGGSTNYADSVKGRFTISRDNAKNTVYLQMNSLKPEDTAVYYCARTLYRGKSYHVHSKYDYWGQGTQVTVSS | high polyreactivity
QVQLVESGGGLVQAGGSLRLSCAASGSIFRKYVMGWYRQAPGKERELVAVISSGTGTYYADSVKGRFTISRDNAKYTVYLQMNSLKPEDTAVYYCSSKYFGKWYKYYYWGQGTQVTVSS | high polyreactivity
QVQLVESGGGLVQAGGSLRLSCAASGFTISRYTMGWYRQAPGKERELVASITRRAGSTYYADSVKGRYTISRDNAQTTVYLQMYSLKPEDTAVYYCAAYGWTFSKVDLEMDYWGQGTQVTVSS | high polyreactivity
QVQLVESGGGLVQAGGSLRLSCAASGSIFGTYAMGWYRQAPGKERELVAAITSSGGSTYYADSVKGRFTISRDNAKNTVYLQMNSLKPEDTAVYYCAAYRRIRVGVPVRTYYYWGQGTQVTVSS | high polyreactivity
QLQLVESGGGLVQAGGSLRLSCAASGRIFTGNAMGWYRQAPGKERELVAAISYSGGSTYYADSVKGRFTISRDNAKNTVYLQMNSLKPEDTAVYYCAAAGRYLRYGYWGQGTQVTVSS | high polyreactivity
QVQLVESGGGLVQAGGSLRLSCAASGRTFSYYAMGWYRQAPGKERELVAAISQRGGSTYYADSVKGRFTISRDNAKNTVYLQMNSLKPEDTAVYYCAVLVSRYRYRVLDDYWGQGTQVTVSS | high polyreactivity
QVQLVESGGGLVQAGGSLRLSCAASGSTFVWYAMGWYRQAPGKEREFVATISWSGDSTYYADSVKGRFTISRDNAKNTVYLQMNSLKPEDTAVYYCATAVYLVIFEYDYWGQGSQVTVSS | low polyreactivity
QVQLVESGGGLVQAGGSLRLSCAASGSTFAGNAMGWYIQAPGKERELVAAISSSGAGTYYADSVKGRFTISRDNAKNTVYLLINSLKPADTAVYYCNVGSRALRRRVRSVSFDYWGQGTQVSVSS | low polyreactivity
QVQLVESGGGLVQAGGSLRLSCAASGRIFYSNAMGWYRQAPGKERELVATITYYADSVKGRFTISRDNAKNTVYLQMNSLKPEDTSVYYCAAVYLYYSRSDLYDYWGQGTQVTVSS | low polyreactivity
QVQLVESGGGLVQAGGSLRLSCAASGSTFGYYAMGWYRQAPGKERELVAAISYNTGSTYYADSVKGRFTISRDNAKNTVYLQMNSLKPEDTAVFYCAASRSRYSVNWYNYWGQGTQVTVSS | high polyreactivity
QVQLVESGGGLVQAGGSLRLSCAASGSTFYPNARGWYRQAPGKERELVAAISWSGGRTYYADSEKGRFTISRDNAKNTVYLQMNSLKPEDTAVYYCYRYHRTSGRAKYDYWGQGTQVTVSS | high polyreactivity
QVQLVESGGGLVQAGGSLRLSCAASGSIFASNAMGWYRQAPGKERGLVAAITYNGGSTYYADSVKGRFTISRDNAKNTVYLQMNSLKPEDTAVYYCAALGTRRPHIPRGDYWGQGTQVTVSS | low polyreactivity

Sequence | polyreactivity (PSR sort gate)
QVQLVESGGGLVQAGGSLRLSCAASGRIFGEYAMGWYRQAPGKERELVAAITSSTGSTYYADSVKGRFTISRDNAKNTVYLQMNSLKPEDTAVYYCAAADLKYASYWYDYWGQGTQVTVSS | low polyreactivity
QVQLLESGGGLVQAGGSLRLSCAASGNTFSYYTMGWYRPAPGKERELVAAISASGGSTYYADSVKGRFTISRDNAKNTVYIQMNSLKQEDTAVYYCAASFYIERHRYNYWGHGTQVTVSS | high polyreactivity
QVQLVESGGGLVQAGGSLRLSCAASGSTFIHNAMGWYRQAPGKERELVAAITSGGSTYYADSVKGRFTISRDNAKNTVYLQMTSLKPEDTAVYYCNAGRGTRFVYIDGMDYWGQGTQVTVSS | high polyreactivity
QVQLVESGGGLVQAGGSLRLSCAASGLIFYRYAMGWYRQAPGKERELVAAITASGGTTYYADSVKGRFTISRDNAKNTVYLQMNSLKPEDTAVYDCASPYTYWRRIGVDYDYWGQGTQVTVSS | high polyreactivity
QVQLVESGGGLVHAGGSLRLSCAASGSTFVRNAMGWYRQAPGKERELVAAITSRGGSTYYADSVKGRFTISRDNAKNTVYLQMNSLKPEDTAVYYCAARFGVKRGQYDYWGQGTQVTVSS | high polyreactivity
QVHLVESGGGLFQAGGSLRLSCAASGSTFTDYDMGWYRQAPGKDRELVASITSGGSTNYADSVKGRFTISRDNAKNTVYLQMNSLKPEDTAVYYGAAADADRKYDYWGQGTQVTVSS | low polyreactivity
QVQLVESGGCLVQAGGSLRLSCAASGRSLTDYAMGWYRKAPGKERELVAAISRSGGSTYYADSVKGRFTISRDHAKNTVYLQMNSLKTEDTAVYYCAAGTPKRVGGGYWGQCTQVTVSS | high polyreactivity
QVQLVESGGGLVQAGGSLRLSCAASGLIFLRYAMGWYRQAPGTERELVAVISSGGRTYYADSVKGRFTISRDNAKNTVYLQMNSLKPEDTAVYYCAARTRSYWGTYGSYHYDYWGQGTQVTVSS | high polyreactivity
QVQLVESAVGLVQAGVSLRLSSAASGFIYYAYALGWYRQAPGKERELVAGISDSGASTYADSVKGRFTISRDNAKNTVYLQMNSLKPEDTAVYYCATTGYLSTKDYDEYGYWGQGTQVTVSS | low polyreactivity
QVQLVESGGGLVQAGGSLRLSCAASGSIRSYAMGWYRQAPGKERELVAAITRSGGSTYYADSVKGRFTLSRDNAKNSVYLQMNSLKPEDTAVYYCAARYTYSYPYYRYNYWGQGTQVTVSS | high polyreactivity
QVQLVESGGGLVQAGGRLRLSCAASGIILGRYAMGWDRQAPGKERELVAAISIRGTRTYYADSVKGRFTISRDNAKNTVYLQLNSLKPEDTAVSYCAAKTVLWGQGTQVTVSS | high polyreactivity
QVQLVDSGGGLVQAGGSLRISCAASGFIFSSYAMGWSRQAPAKERELVAAISSRGGSTYYADSVKGRFTISRDNAKNTVYLQMNSLKPEDTAVYYCNAYLSPYVQTSRYDDDYWGQGTQVTVSS | high polyreactivity
QVQLVESGGGLVQAGGSLRLSCAASGRIFSYYAMGWYRQAPGKERELVAAIRWSGGRTYYADSVKGRFTISRDNAKNTVYLQMNSLKPEDTAVYYCAAEGAYRLAYDYWGQGTQVTVSS | high polyreactivity
QVQLVESGGGLVQAGGSLRLSCAASGRTFRIYSMGWYRQAPGKEREFVAGITRSDGSTYYADSVKGRFTISRDNAKNTVYLQMNSLKPEDTAVYYCNVEPYSHYRRTEDYWGQGTQVTVSS | high polyreactivity
QVQIVESGGGLVQAGGSLRLSCAASGSIFVNNAMGWYRQAPGKVRELVARISFSGGSTYYADSVKGRFTISRDNAKNTVYLQMISLNPEDTAVYYCAKTVLRTESGWWIKFDYWGQVTQVTVSS | low polyreactivity
